The results in this text go back to paper PMC6327041 (Nature Communications, 2019).

For the assay, the target named is T1, KDM5A1-797 (Homo sapiens, UniProt P29375).
T1 construct: KDM5A1-797 was cloned into a pFASTBAC HTA vector; His (N, cleaved yes); made in house; host or cells: Sf21 insect cells (baculovirus)
T1 sequence (P29375 1-797): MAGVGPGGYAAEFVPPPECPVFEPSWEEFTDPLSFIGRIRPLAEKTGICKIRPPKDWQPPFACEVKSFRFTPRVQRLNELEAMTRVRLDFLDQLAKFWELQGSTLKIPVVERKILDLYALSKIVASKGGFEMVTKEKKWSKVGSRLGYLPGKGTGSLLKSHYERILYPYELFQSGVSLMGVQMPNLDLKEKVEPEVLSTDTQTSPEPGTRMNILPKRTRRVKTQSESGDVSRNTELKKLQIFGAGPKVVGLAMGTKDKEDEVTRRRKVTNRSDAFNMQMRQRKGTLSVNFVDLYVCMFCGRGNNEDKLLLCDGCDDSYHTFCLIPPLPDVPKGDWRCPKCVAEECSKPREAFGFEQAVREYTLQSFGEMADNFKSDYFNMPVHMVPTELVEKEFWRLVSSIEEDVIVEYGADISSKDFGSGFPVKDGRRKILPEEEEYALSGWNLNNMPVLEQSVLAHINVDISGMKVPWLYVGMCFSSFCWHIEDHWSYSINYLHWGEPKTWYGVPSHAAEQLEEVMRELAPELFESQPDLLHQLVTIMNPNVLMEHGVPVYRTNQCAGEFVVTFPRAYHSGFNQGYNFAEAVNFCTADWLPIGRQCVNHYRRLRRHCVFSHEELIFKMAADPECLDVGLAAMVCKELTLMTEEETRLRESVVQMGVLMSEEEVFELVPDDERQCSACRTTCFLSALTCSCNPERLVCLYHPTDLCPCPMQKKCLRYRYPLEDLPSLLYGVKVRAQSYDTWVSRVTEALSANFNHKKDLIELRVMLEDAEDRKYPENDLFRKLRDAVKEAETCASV
The assay is described as follows: KDM5A demethylation, FDH-coupled formaldehyde release assay. It is filed as biochemical. The note with it: for kcat / Km: n ≥ 3, s.e.m. As for the experimental part:
WT KDM5A1-797 was expressed in Sf21 cells following Invitrogen Bac-to-Bac baculovirus expression system protocol. KDM5A1-797 was cloned into a pFASTBAC HTA vector. Purified bacmid was transfected in Sf21 cells. Approximately […] cells per well of a six-well dish were allowed to attach in 2 ml of SF-900 II SFM media containing 50 U ml^−1 penicillin and 50 μg ml^−1 streptomycin. While cells attached, 8 μl of Cellfectin II reagent (Invitrogen) in 100 μl of unsupplemented Grace’s medium was mixed with ~2–5 μg of bacmid in 100 μl of unsupplemented Grace’s medium and incubated for 15–30 min at 25 °C. Once cells were attached, media was removed and cells were washed with 2 ml of Grace’s unsupplemented media. The bacmid DNA:Cellfectin mixture was then diluted to 1 ml with Grace’s unsupplemented media and added to the well. Cells with bacmid:Cellfectin II mixture were incubated for 5 h at 27 °C. After 5 h of incubation, bacmid:Cellfectin mixture was removed and replaced with 2 ml of SF-900 II SFM 50 U ml^−1 penicillin and 50 μg ml^−1 streptomycin. Transfected cells were incubated 3–5 days or until signs of viral infection were observed. After transfection, the supernatant was spun down to remove the dead cells. The supernatant was then sterile filtered to obtain the P1 viral stock. To make P2, 20 ml of […] at ~2 × 10^6 cells per ml of sf21 was infected with 2 ml of P1 virus and incubated for 48–60 h. After 56 h, the cells were spun down and the supernatant was collected and sterile filtered to obtain P2 viral stock. Similarly, P3 viral stock from P2 viral stock was obtained. Generally, 1 l of Sf21 at 2 × 10^6 cells per ml was infected with ~40 ml of P3 virus for ~48–56 h. Cells were then collected and resuspended in the lysis buffer (25 mM HEPES pH 7.9, 350 mM NaCl, 5 mM KCl, 1.5 mM MgCl2, 10 mM imidazole, aprotinin 2 μg ml^−1, leupeptin 3 μg ml^−1, pepstatin 3 μg ml^−1, and 1 mM PMSF). Cells were homogenized by emulsiflex. After lysis, the supernatant was recovered by centrifuging at 35k r.p.m. for 45 min, and incubated with cobalt resin equilibrated in lysis buffer for 1 h at 4 °C. After incubation the resin was washed with wash buffer (25 mM HEPES, pH 7.9, 350 mM NaCl, 0.5 mM MgCl2, 10% glycerol, 10 mM imidazole, aprotinin 2 μg ml^−1, leupeptin 3 μg ml^−1, pepstatin 3 μg ml^−1, and 1 mM PMSF). His-KDM5A was eluted with elution buffer (25 mM HEPES pH 7.9, 100 mM NaCl, 0.5 mM MgCl2, 10% glycerol, 100 mM imidazole, aprotinin 2 μg ml^−1, leupeptin 3 μg ml^−1, pepstatin 3 μg ml^−1, and 1 mM PMSF). The His-tag was removed by overnight incubation with TEV protease at 4 °C in the dialysis buffer (25 mM HEPES, pH 7.9, 100 mM NaCl, and 2 mM DTT). After cleavage, protein was further purified by size-exclusion chromatography using a S200 column. Purified KDM5A was eluted, aliquoted and stored at −80 °C in 40 mM HEPES, pH 7.9, 50 mM KCl.
Michaelis–Menten parameters were determined using Graphpad Prism.

The mark [1] stands for this setting: 38 µM H3 10mer effector peptide vs none.
The mark [2] stands for this setting: KDM5A1-797 WT (Table 3), no effector.

Where two headings read alike, the source gives them in different places.

One may read the kcat/Km as the second-order rate constant that governs catalysis at low substrate concentration. A word on the kcat: it is the maximal rate divided by the concentration of active sites. By Km is commonly meant the concentration of substrate that gives half-maximal velocity. Take “Ac-H3K4me3 21mer: N-terminally acetylated 21mer H3K4me3 peptide, catalytic domain substrate”: under setting [1], the “change of kcat on addition of effector peptide” value is “kcat remains similar”. Further, the “reduction in Km on addition of effector peptide” value under setting [1] is given as “fivefold”. In addition, the catalytic efficiency (kcat/Km) is, setting by setting: (+H3 10mer peptide (38 µM)) 2430 ± 200 M⁻¹ s⁻¹; under setting [2], 490 ± 55 M⁻¹ s⁻¹; (No effector peptide) 490 ± 55 M⁻¹ s⁻¹. The kcat (+H3 10mer peptide (38 µM), 1 μM KDM5A, pH 7.5, room temperature) came out at 0.0408 ± 0.00067 s⁻¹; the kcat under setting [2] is 0.047 ± 0.0013 s⁻¹; the kcat (No effector peptide, 1 μM KDM5A, pH 7.5, room temperature) worked out at 0.047 ± 0.001 s⁻¹. Further, the Km (+H3 10mer peptide (38 µM), 1 μM KDM5A, pH 7.5, room temperature, read-out: Km) was determined as 16.8 ± 1.1 µM; the Km (KDM5A1-797 WT (Table 3), no effector, read-out: Km) came to 95.5 ± 7.6 µM; the Michaelis constant (Km) (No effector peptide, 1 μM KDM5A, pH 7.5, room temperature, read-out: Km) came to 95.5 ± 7.6 µM.

For “H3: unmodified N-terminal H3 tail 10mer peptide (H3 Ala1-Ser10), PHD1 effector ligand”, the “rank of Km reduction among effector peptides” value (Ac-H3K4me3 21mer substrate, saturating effector peptide) is “highest reduction in Km”. In addition, the Km (Km of Ac-H3K4me3 21mer with saturating modified H3 10mer effector (20× Kd; H3K4me2 10× Kd), 1 μM KDM5A, 50 mM HEPES, 50 mM KCl, pH 7.5, room temperature, read-out: Demethylase activity Km with effector peptide (Fig. 4a)) turned out to be 16.8 ± 1.1 µM.
